Measurements from patent US20240247080A1, “GLP1/GIP/NPY2 RECEPTOR TRIPLE AGONISTS” (Boehringer Ingelheim International GmbH, priority 2022, published 2024).
Changes are numbered by the printed parent chain. Starred links: 1 amine or outer side, 2 acyl side, 3 side chain; linkers in the order of their positions; H or OH if unused. Non-standard residues stand in square brackets, D forms with d. Groups on a side chain read outwards from the residue. No end group written: not given here. *: point of attachment. C20 diacid = O=C(O)CCCCCCCCCCCCCCCCCCC(=O)*; C18 diacid = O=C(O)CCCCCCCCCCCCCCCCC(=O)*; γGlu = O=C(O)[C@H](CCC(=O)[*:2])N[*:1]; εLys = N[C@@H](CCCCN[*:1])C(=O)[*:2]; AEEA = NCCOCCOCC(=O)O; Aib = CC(C)(N)C(=O)O

T1: GIP receptor (human (printed as hGIPR), UniProt P48546 22-466)
T1 sequence (looked up): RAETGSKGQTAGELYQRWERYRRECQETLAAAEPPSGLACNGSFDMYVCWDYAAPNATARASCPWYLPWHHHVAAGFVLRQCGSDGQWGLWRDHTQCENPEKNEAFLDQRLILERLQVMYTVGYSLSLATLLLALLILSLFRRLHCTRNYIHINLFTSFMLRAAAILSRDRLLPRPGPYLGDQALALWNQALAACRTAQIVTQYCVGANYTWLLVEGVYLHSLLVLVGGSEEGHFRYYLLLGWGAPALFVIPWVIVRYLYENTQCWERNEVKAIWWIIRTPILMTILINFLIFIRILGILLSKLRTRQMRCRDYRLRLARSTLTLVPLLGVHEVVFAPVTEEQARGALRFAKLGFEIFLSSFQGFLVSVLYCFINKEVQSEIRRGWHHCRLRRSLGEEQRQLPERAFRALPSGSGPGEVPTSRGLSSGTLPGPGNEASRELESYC

T2: NPY2 receptor (human (printed as hNPY2R), UniProt P49146 1-381)
T2 sequence (looked up): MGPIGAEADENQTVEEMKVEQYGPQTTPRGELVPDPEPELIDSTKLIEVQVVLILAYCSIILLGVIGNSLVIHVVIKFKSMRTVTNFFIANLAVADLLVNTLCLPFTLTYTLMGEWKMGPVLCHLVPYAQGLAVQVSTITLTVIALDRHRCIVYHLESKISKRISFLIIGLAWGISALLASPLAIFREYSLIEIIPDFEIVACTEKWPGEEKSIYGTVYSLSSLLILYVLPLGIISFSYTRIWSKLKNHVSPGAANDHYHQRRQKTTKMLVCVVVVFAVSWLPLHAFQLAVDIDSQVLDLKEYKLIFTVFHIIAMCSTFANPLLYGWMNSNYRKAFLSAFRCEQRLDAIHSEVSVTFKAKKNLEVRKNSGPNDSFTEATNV

B1: Compound 176 (peptide)
peptide: YXEGTFTSDYSIXLEKQAQXEFVQWLIKGGPSEGASLRHYYNWLTRQRY
modifications: Aib at 2, 13, 20; K28 side chain carries C18DA-E-E-E-E-E (SEQ ID NO: 636); C-terminal amide
B2: Compound 186 (peptide)
peptide: B1 peptide with E21A, Q47X
modifications: Aib at 2, 13, 20; bHGln (beta-homo-L-glutamine) at 47; K28 side chain carries C20DA-gGlu-gGlu-gGlu-gGlu-gGlu-gGlu-eLys; C-terminal amide
B3: Compound 184 (peptide)
peptide: B1 peptide with E21A, Q24E, E33S, Y41X
modifications: Aib at 2, 13, 20, 41; K28 side chain carries C20DA-gGlu-gGlu-gGlu-gGlu-gGlu-gGlu-eLys; C-terminal amide
B4: Compound 182 (peptide)
peptide: B1 peptide with E21A, Q24E, E33S, H39X
modifications: Aib at 2, 13, 20, 39; K28 side chain carries C20DA-gGlu-gGlu-gGlu-gGlu-gGlu-gGlu-eLys; C-terminal amide
B5: Compound 180 (peptide)
peptide: B1 peptide with E21A, Q24E, E33S, G34P
modifications: Aib at 2, 13, 20; K28 side chain carries C18DA-gGlu-gGlu-gGlu-gGlu-gGlu; C-terminal amide

Tests used:
Assay in all cases: cell-based or functional assay
GLP-1 receptor = GLP-1 receptor (human (printed as hGLP1R), UniProt P43220 24-463)
GIP receptor = biological target: T1, GIP receptor
NPY2 receptor = biological target: T2, NPY2 receptor

Binder | EC50 hGLP1R 0.5% hP (CreLuc) (GLP-1 receptor) [nM] | EC50 hGLP1R 100% hP (CreLuc) (GLP-1 receptor) [nM] | EC50 hGIPR 0.5% hP (CreLuc) (GIP receptor) [nM] | EC50 hGIPR 100% hP (CreLuc) (GIP receptor) [nM] | EC50 hNPY2R 0.5% hP (CreLuc) (NPY2 receptor) [nM] | EC50 hNPY2R 100% hP (CreLuc) (NPY2 receptor) [nM]
Y[Aib]EGTFTSDYSI[Aib]LEEQAQ[Aib]AFVEWLIK([εLys-γGlu-γGlu-γGlu-γGlu-γGlu-C20 diacid])GGPSSGASLRHYYNWLTRQRY-NH2 (also: TFA salt) [Compound 181] | 0.14 | 3.23 | 0.16 | 1.23 | 16.5 | 102
Y[Aib]EGTFTSDYSI[Aib]LEKQAQ[Aib]EFVQWLIK([γGlu-γGlu-γGlu-γGlu-γGlu-γGlu-C20 diacid])GGPSEGASLRHYYNWLTRQRY-NH2 (also: TFA salt) [Compound 185] | 0.4 | 11 | 0.33 | 5.59 | 13.3 | 66.8
Y[Aib]EGTFTSDYSI[Aib]LEKQAQ[Aib]AFVQWLIK([AEEA-AEEA-Glu-Glu-Glu-Glu-C18 diacid])GGPEEGASLRHYYNWLTRQRY-NH2 (also: TFA salt) [Compound 177] | 0.16 | 12.5 | 0.28 | 2.83 | 18.7 | 115
Y[Aib]EGTFTSDYSI[Aib]LEKQAQ[Aib]AFVEWLIKGGPSSPASLRHYYNWLTRQRY-NH2 (not fully specified (residue 28); also: TFA salt) [Compound 178] | 0.08 | 5.51 | 0.12 | 5.86 | 13.3 | 115
Y[Aib]EGTFTSDYSI[Aib]LEKQAQ[Aib]EFVQWLIK([Glu-Glu-Glu-Glu-Glu-Glu-C18 diacid])GGPSEGASLRHYYNWLTRQRY-NH2 (also: TFA salt) [Compound 179] | 0.22 | 10.5 | 0.38 | 3.34 | 18.5 | 111
Y[Aib]EGTFTSDYSI[Aib]LEKQAQ[Aib]AFVEWLIK([AEEA-AEEA-γGlu-γGlu-γGlu-γGlu-C20 diacid])GGPSSPASLRHYYNWLTRQRY-NH2 (also: TFA salt) [Compound 175] | 0.1 | 5.3 | 0.29 | 1.53 | 10.5 | 48.7
Y[Aib]EGTFTSDYSI[Aib]LEKQAQ[Aib]AFVQWLIK([εLys-γGlu-γGlu-γGlu-γGlu-γGlu-C20 diacid])GGPSEYASLRHYYNWLTRQRY-NH2 (also: TFA salt) [Compound 189] | 0.21 | 10.2 | 0.31 | 5.06 | 8.03 | 45.8
B1 | 0.29 | 9.56 | 0.68 | 3.37 | 30.4 | 197
B2 | 0.11 | 1.25 | 0.11 | 0.77 | > 99.9 | 904
B3 | 0.18 | 1.87 | 0.28 | 1.37 | 46 | 125
B4 | 0.13 | 2.73 | 0.21 | 1.39 | 70.4 | 256
B5 | 0.1 | 3.61 | 0.2 | 3.88 | 19.6 | 107
Y[Aib]EGTFTSDYSI[Aib]LEKQAQ[Aib]AFVEWLIKGGPSSYASLRHYYNWLTRQRY-NH2 (not fully specified (residue 28); also: TFA salt) [Compound 183] | 0.22 | 12.8 | 0.28 | 6.83 | 9.34 | 56.6
Y[Aib]EGTFTSDYSI[Aib]LEKQAQ[Aib]AFVQWLIK([AEEA-AEEA-Glu-Glu-Glu-C18 diacid])GGPEEGASLRHYYNWLTRQRY-NH2 (also: TFA salt) [Compound 188] | 0.15 | 5.93 | 0.12 | 1.16 | 16.9 | 105
